Results published in the supplement of paper PMC9112550, “Optimization of the antimicrobial peptide Bac7 by deep mutational scanning” (BMC Biology, 2022).

What follows are sequences tested on Escherichia coli TOP10 (assay: shrunken log2 fold change of peptide-encoding DNA abundance (4.5 h post-induction vs induction); higher = less antimicrobial activity (less host growth inhibition)). Conditions: time post-induction: 4.5 h; library: site-saturation at positions 5, 18, 19, 20.
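Note: peptides expressed intracellularly from a pBAD plasmid library in pooled LB shake-flask culture, induced with 0.3% L-arabinose, DNA abundance read by NGS, three biological replicates, DESeq2 with apeglm shrinkage.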

Row | Sequence | shrunken log2 fold change
1 | RRIRDRPPRLPRPRPRPGKQPRP | -0.0597
2 | RRIRWRPPRLPRPRPRPDVCPRP | -0.0101
3 | RRIRPRPPRLPRPRPRPHNSPRP | -0.454
4 | RRIRIRPPRLPRPRPRPNYCPRP | -0.139
5 | RRIRYRPPRLPRPRPRPQFGPRP | 0.03
6 | RRIRYRPPRLPRPRPRPWIKPRP | 0.106
7 | RRIRPRPPRLPRPRPRPYMTPRP | -0.227
8 | RRIRPRPPRLPRPRPRPCWPPRP | 0.144
9 | RRIRDRPPRLPRPRPRPAMIPRP | -0.129
10 | RRIRSRPPRLPRPRPRPNYRPRP | -0.366
11 | RRIRQRPPRLPRPRPRPVTAPRP | -0.362
12 | RRIRWRPPRLPRPRPRPKLMPRP | 0.31
13 | RRIRPRPPRLPRPRPRPRQLPRP | 0.247
14 | RRIRVRPPRLPRPRPRPDPRPRP | 0.395
15 | RRIRRRPPRLPRPRPRPREHPRP | 0.673
16 | RRIRTRPPRLPRPRPRPRGYPRP | 0.205
17 | RRIRHRPPRLPRPRPRPPMEPRP | -0.0615
18 | RRIRGRPPRLPRPRPRPRAIPRP | 0.733
19 | RRIRLRPPRLPRPRPRPTGNPRP | -0.044
20 | RRIRFRPPRLPRPRPRPRPYPRP | -0.175
21 | RRIRFRPPRLPRPRPRPCYDPRP | -0.0301
22 | RRIRIRPPRLPRPRPRPMYKPRP | -1.13
23 | RRIRKRPPRLPRPRPRPLIYPRP | -0.213
24 | RRIRQRPPRLPRPRPRPTHAPRP | 0.437
25 | RRIRCRPPRLPRPRPRPDVEPRP | -0.421

Row | Sequence | shrunken log2 fold change
26 | RRIRRRPPRLPRPRPRPQDHPRP | -0.0159
27 | RRIRHRPPRLPRPRPRPVWIPRP | -0.0159
28 | RRIRHRPPRLPRPRPRPIQVPRP | 0.000744
29 | RRIRSRPPRLPRPRPRPQAIPRP | 0.0296
30 | RRIRNRPPRLPRPRPRPFALPRP | 0.814
31 | RRIRWRPPRLPRPRPRPTHGPRP | -0.0242
32 | RRIRVRPPRLPRPRPRPWLTPRP | -0.147
33 | RRIRWRPPRLPRPRPRPGDTPRP | -0.0199
34 | RRIRPRPPRLPRPRPRPIFQPRP | 0.0149
35 | RRIRKRPPRLPRPRPRPNHTPRP | -0.213
36 | RRIRRRPPRLPRPRPRPAPPPRP | 0.778
37 | RRIRNRPPRLPRPRPRPFEMPRP | 0.0463
38 | RRIRRRPPRLPRPRPRPNMMPRP | -0.245
39 | RRIRHRPPRLPRPRPRPHHGPRP | -0.755
40 | RRIRRRPPRLPRPRPRPTGTPRP | 1.07
41 | RRIRNRPPRLPRPRPRPHDNPRP | -0.511
42 | RRIRWRPPRLPRPRPRPVQKPRP | 0.0836
43 | RRIRHRPPRLPRPRPRPRYPPRP | 0.0331
44 | RRIRLRPPRLPRPRPRPYLPPRP | -0.18
45 | RRIRWRPPRLPRPRPRPYHEPRP | -0.123
46 | RRIRERPPRLPRPRPRPCRTPRP | -0.203
47 | RRIRYRPPRLPRPRPRPTIMPRP | -1.29
48 | RRIRRRPPRLPRPRPRPQIMPRP | -0.137
49 | RRIRERPPRLPRPRPRPEQVPRP | -0.0135
50 | RRIRPRPPRLPRPRPRPARIPRP | 0.14

Row | Sequence | shrunken log2 fold change
51 | RRIRCRPPRLPRPRPRPAYLPRP | -0.247
52 | RRIRNRPPRLPRPRPRPFDTPRP | 0.0291
53 | RRIRPRPPRLPRPRPRPVYVPRP | -0.167
54 | RRIRYRPPRLPRPRPRPNVTPRP | -0.573
55 | RRIRLRPPRLPRPRPRPDGQPRP | 0.00145
56 | RRIRIRPPRLPRPRPRPQSQPRP | -0.513
57 | RRIRDRPPRLPRPRPRPPCIPRP | -0.264
58 | RRIRWRPPRLPRPRPRPPCMPRP | 0.00553
59 | RRIRWRPPRLPRPRPRPHSRPRP | 0.194
60 | RRIRKRPPRLPRPRPRPRKFPRP | 0.106
61 | RRIRIRPPRLPRPRPRPEGAPRP | 0.27
62 | RRIRIRPPRLPRPRPRPVNGPRP | -0.0532
63 | RRIRRRPPRLPRPRPRPAWKPRP | 0.2
64 | RRIRCRPPRLPRPRPRPEYRPRP | -0.00301
65 | RRIRGRPPRLPRPRPRPYHDPRP | -0.0405
66 | RRIRARPPRLPRPRPRPFLWPRP | -0.0716
67 | RRIRQRPPRLPRPRPRPEILPRP | 0.00769
68 | RRIRKRPPRLPRPRPRPATLPRP | 0.312
69 | RRIRKRPPRLPRPRPRPVAPPRP | 0.528
70 | RRIRSRPPRLPRPRPRPISGPRP | -0.176
71 | RRIRFRPPRLPRPRPRPFKDPRP | -0.112
72 | RRIRGRPPRLPRPRPRPCVWPRP | 0.921
73 | RRIRMRPPRLPRPRPRPAKWPRP | 0.708
74 | RRIRNRPPRLPRPRPRPFMSPRP | -0.17
75 | RRIRDRPPRLPRPRPRPETAPRP | 1.15

Row | Sequence | shrunken log2 fold change
76 | RRIRARPPRLPRPRPRPLANPRP | 0.255
77 | RRIRKRPPRLPRPRPRPDCCPRP | 0.435
78 | RRIRPRPPRLPRPRPRPQQKPRP | 0.433
79 | RRIRTRPPRLPRPRPRPQNPPRP | -0.148
80 | RRIRVRPPRLPRPRPRPTYNPRP | -0.769
81 | RRIRHRPPRLPRPRPRPVSGPRP | -0.188
82 | RRIRMRPPRLPRPRPRPDNWPRP | 0.402
83 | RRIRVRPPRLPRPRPRPLGPPRP | 0.342
84 | RRIRTRPPRLPRPRPRPLVRPRP | 0.114
85 | RRIRIRPPRLPRPRPRPPLAPRP | 0.293
86 | RRIRPRPPRLPRPRPRPVNWPRP | 0.297
87 | RRIRARPPRLPRPRPRPHRMPRP | -0.0562
88 | RRIRDRPPRLPRPRPRPIWCPRP | -0.0176
89 | RRIRMRPPRLPRPRPRPRAIPRP | 0.52
90 | RRIRDRPPRLPRPRPRPDALPRP | 0.306
91 | RRIRFRPPRLPRPRPRPSIVPRP | -0.663
92 | RRIRGRPPRLPRPRPRPQAQPRP | 1.02
93 | RRIRERPPRLPRPRPRPPWVPRP | -0.0642
94 | RRIRARPPRLPRPRPRPVWCPRP | 0.293
95 | RRIRFRPPRLPRPRPRPCVAPRP | -0.201
96 | RRIRFRPPRLPRPRPRPQGYPRP | -0.249
97 | RRIRTRPPRLPRPRPRPVLNPRP | -0.269
98 | RRIRHRPPRLPRPRPRPKEEPRP | -0.0523
99 | RRIRWRPPRLPRPRPRPCMTPRP | 0.317
100 | RRIRFRPPRLPRPRPRPQQYPRP | -0.552

Row | Sequence | shrunken log2 fold change
101 | RRIRCRPPRLPRPRPRPHTMPRP | -0.371
102 | RRIRHRPPRLPRPRPRPFCDPRP | 0.128
103 | RRIRMRPPRLPRPRPRPHPTPRP | 0.805
104 | RRIRERPPRLPRPRPRPPDFPRP | 0.00276
105 | RRIRSRPPRLPRPRPRPQVAPRP | 0.0589
106 | RRIRYRPPRLPRPRPRPGFIPRP | 2.02
107 | RRIRFRPPRLPRPRPRPPEWPRP | 0.139
108 | RRIRVRPPRLPRPRPRPKIQPRP | -0.0896
109 | RRIRSRPPRLPRPRPRPVFVPRP | -0.00419
110 | RRIRRRPPRLPRPRPRPLKYPRP | 0.0102
111 | RRIRRRPPRLPRPRPRPFKMPRP | -0.124
112 | RRIRKRPPRLPRPRPRPLASPRP | 0.0708
113 | RRIRTRPPRLPRPRPRPNEYPRP | -0.22
114 | RRIRARPPRLPRPRPRPNHYPRP | -0.456
115 | RRIRPRPPRLPRPRPRPNQMPRP | -0.129
116 | RRIRVRPPRLPRPRPRPSLAPRP | -0.0683
117 | RRIRCRPPRLPRPRPRPEAFPRP | 0.13
118 | RRIRWRPPRLPRPRPRPSQDPRP | 0.22
119 | RRIRERPPRLPRPRPRPTNEPRP | -0.676
120 | RRIRHRPPRLPRPRPRPVWEPRP | 0.107
121 | RRIRYRPPRLPRPRPRPIMFPRP | -1.35
122 | RRIRKRPPRLPRPRPRPRLWPRP | 1.01
123 | RRIRSRPPRLPRPRPRPKIWPRP | 0.141
124 | RRIRFRPPRLPRPRPRPEWIPRP | -0.0219
125 | RRIRIRPPRLPRPRPRPMYQPRP | -0.862

Row | Sequence | shrunken log2 fold change
126 | RRIRPRPPRLPRPRPRPREEPRP | 0.111
127 | RRIRKRPPRLPRPRPRPYAFPRP | -0.111
128 | RRIRFRPPRLPRPRPRPVICPRP | 0.0508
129 | RRIRHRPPRLPRPRPRPGVWPRP | 0.178
130 | RRIRCRPPRLPRPRPRPDCIPRP | -0.027
131 | RRIRMRPPRLPRPRPRPSFDPRP | 0.485
132 | RRIRCRPPRLPRPRPRPYMNPRP | -0.99
133 | RRIRSRPPRLPRPRPRPMYCPRP | 0.0069
134 | RRIRDRPPRLPRPRPRPQMVPRP | -0.0637
135 | RRIRDRPPRLPRPRPRPRAKPRP | 0.208
136 | RRIRPRPPRLPRPRPRPPSQPRP | 0.334
137 | RRIRCRPPRLPRPRPRPRVNPRP | 0.0551
138 | RRIRRRPPRLPRPRPRPILEPRP | 0.0696
139 | RRIRQRPPRLPRPRPRPMLLPRP | -0.337
140 | RRIRGRPPRLPRPRPRPTIYPRP | 0.365
141 | RRIRTRPPRLPRPRPRPNGSPRP | -0.198
142 | RRIRVRPPRLPRPRPRPVSSPRP | 0.105
143 | RRIRIRPPRLPRPRPRPCAIPRP | 0.137
144 | RRIRNRPPRLPRPRPRPGFRPRP | 0.114
145 | RRIRERPPRLPRPRPRPQPDPRP | -0.258
146 | RRIRERPPRLPRPRPRPGSIPRP | 0.0371
147 | RRIRTRPPRLPRPRPRPCPKPRP | 0.0604
148 | RRIRGRPPRLPRPRPRPRMMPRP | 0.882
149 | RRIRIRPPRLPRPRPRPYKHPRP | -1.57
150 | RRIRLRPPRLPRPRPRPGWYPRP | 0.354
